Positions count from the first letter of the chain named. Names and notes keep the numbering of the source.
T1: human LAG-3 on transiently transfected CHO-S cells (human, UniProt P18627 23-525)
T1 construct: also called huLAG-3
T1 sequence: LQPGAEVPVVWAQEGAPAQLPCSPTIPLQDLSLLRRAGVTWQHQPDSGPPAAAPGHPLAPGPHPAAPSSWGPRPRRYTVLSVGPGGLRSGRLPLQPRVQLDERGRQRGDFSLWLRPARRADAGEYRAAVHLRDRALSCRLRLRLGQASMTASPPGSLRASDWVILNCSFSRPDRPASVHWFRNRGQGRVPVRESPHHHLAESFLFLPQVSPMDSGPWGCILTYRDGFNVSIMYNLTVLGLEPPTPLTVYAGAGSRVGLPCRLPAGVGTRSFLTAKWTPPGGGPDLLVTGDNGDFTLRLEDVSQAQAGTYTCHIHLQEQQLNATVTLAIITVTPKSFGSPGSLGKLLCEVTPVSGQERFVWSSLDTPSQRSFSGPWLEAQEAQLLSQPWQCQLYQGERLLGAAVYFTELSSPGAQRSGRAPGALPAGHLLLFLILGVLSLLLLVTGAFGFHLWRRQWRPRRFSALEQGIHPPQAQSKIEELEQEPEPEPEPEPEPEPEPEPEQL

T2: R-PE-labeled recombinant human LAG-3-Fc chimera protein (R&D Systems) (human, UniProt P18627 23-450, conjugated to R-phycoerythrin)
T2 construct: bought; also called LAG-3-Fc-PE; soluble LAG-3; not shown: Fc of the bought chimera, not described
T2 sequence: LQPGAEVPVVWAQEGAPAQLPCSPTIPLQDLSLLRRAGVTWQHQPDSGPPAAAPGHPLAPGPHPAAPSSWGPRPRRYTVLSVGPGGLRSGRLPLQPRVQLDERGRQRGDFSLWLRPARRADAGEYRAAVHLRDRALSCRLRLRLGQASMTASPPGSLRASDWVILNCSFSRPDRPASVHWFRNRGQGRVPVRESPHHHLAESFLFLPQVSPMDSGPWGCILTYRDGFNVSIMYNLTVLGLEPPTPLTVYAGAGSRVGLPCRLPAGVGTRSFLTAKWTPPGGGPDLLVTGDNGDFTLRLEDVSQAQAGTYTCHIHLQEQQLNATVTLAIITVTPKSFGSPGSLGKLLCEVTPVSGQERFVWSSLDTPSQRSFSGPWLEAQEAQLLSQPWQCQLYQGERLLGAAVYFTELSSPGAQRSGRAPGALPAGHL

B1: antibody 15595 (antibody, V domains shown)
VH: QVQLVQSGAEVKKPGASVKVSCKVSGYSLTEISMHWVRQAPGKGLEWMGGFDPEDGETIYAQRFQGRVIMTEDTSTDTAYMELSSLRSEDTAVYYCATGGWGPNWFDPWGQGTLVTVSS
VL: DIQMTQSPSSVSASVGDRVTITCRASQGISSWLAWYQQKPGKAPKLLIYAASSLQSGVPSRFSGSGSGTDFTLTISSLQPEDFATYYCQQANSFPFTFGPGTKVDIKR
notes: OmniRat-derived human IgG1 LALA, kappa; also called 15595 (52)
B2: antibody 15572 (antibody, human IgG1, kappa, L234A L235A, V domains shown)
VH: QLQLQESGPGLVKPSETLSLTCTVSGDSISSSSYYWGWIRQPPGKGLEWIGSIFYSGNTYYNPSLKSRVTISVDTSKNQFSLKLSSVTAADTAVYYCAREDDFLTDYYGAFDIWGQGTMVTVSS
VL: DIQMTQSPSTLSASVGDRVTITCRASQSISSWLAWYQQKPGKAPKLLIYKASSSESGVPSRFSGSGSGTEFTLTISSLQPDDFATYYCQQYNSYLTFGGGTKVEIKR
notes: OmniRat-derived human IgG1 LALA, kappa; also called 15572 (91)
B3: antibody 15646 (antibody, human IgG1, kappa, L234A L235A, V domains shown)
VH: QVQLQQWGAGLLKPSETLSLTCAVYGGSFSGYYWSWIRQPPGKGLEWIGEINHRGSTNYNPSLKSRVTISVDTSKNQFSLKLSSVTAADTAVYYCTRGEEWESLFFDYWGQGTLVTVSS
VL: EIVLTQSPATLSLSPGERATLSCRASQSISSYLAWYQQKPGQAPRLLIYGASNRATGIPARFSGSGSGTDFTLTISSLEPEDFAVYYCQQRSNWPLTFGGGTRVEIKR
notes: OmniRat-derived human IgG1 with L234A/L235A (LALA), kappa; also called 15646 (15)
B4: antibody 15431 (antibody, human IgG1, kappa, L234A L235A, V domains shown)
VH: QVQLQQSGPGLVKPSQTLSLTCAISGDSVSSNSAAWNWIRQSPSRGLEWLGRTYYRSKWYNDYAVSVKSRITINPDTSKNQFSLQLNSVTPEDTAVYYCARDDDWNDFDYWGQGTLVTVSS
VL: B3 VL with I29V, G50D, R103K
notes: OmniRat-derived human IgG1 LALA, kappa; also called 15431 (38); 15431 (83)
B5: antibody 15532 (antibody, human IgG1, kappa, L234A L235A, V domains shown)
VH: QVQLQQWGAGLLRPSETLSLTCAVYGESFSGYYWNWIRQPPGKGLEWIGEINHSGSTNYNPSLKSRVTISVDTSKTQFSLKLSSVTAADTAVYYCARGWDLLDWNDYWNEYWGQGTLVTVSS
VL: B3 VL with I29V, G50D, R103K
notes: OmniRat-derived human IgG1 LALA, kappa
B6: antibody 15723 (antibody, human IgG1, kappa, L234A L235A, V domains shown)
VH: B3 VH with S35N, R54S, T96A, E100D, E102G, S103E, L104S
VL: B3 VL with I29V, G50A, R103K
notes: OmniRat-derived human IgG1 LALA, kappa; also called 15723 (39)
B7: antibody 15011 (antibody, human IgG1, lambda, L234A L235A, V domains shown)
VH: EVQLLESGGGLVQPGGSLRLSCAASGFDFRSYAMMWVRQAPGKGLEWVGGINGEVGGSNTYYAPAVKGRATISRDNSKNTLYLQMNSLRAEDTAVYYCVKGAGACGICNDDIDAWGQGTLVTVSS
VL: SYELTQDPAVSVALGQTVRITCSGAGSYAGSYYYGWHQQKPGQAPVTVIYDNDKRPSNIPDRFSGSSSGNTASLTITGAQAEDEADYYCGSTNDNDDGGLFGSGTKVTVLG
notes: humanized chicken-derived antibody, human IgG1 constant region, lambda (IGLC1*01)

These binders were tested against T1, human LAG-3 on transiently transfected … (assay: flow cytometry on transfected CHO-S cells).

EC50 | Binder
0.05 nM | B1
0.07 nM | B2
0.1 nM | B3
0.04 nM | B4
0.07 nM | B5
0.09 nM | B6

What follows are binders tested against T2, R-PE-labeled recombinant human LAG-3-Fc … (assay: flow cytometric competition, LAG-3-Fc-PE binding to MHCII on A375 cells, antibody 20 ug/mL).

LAG-3/MHCII Blocking (%) | Binder
94% | B1
37% | B2
49% | B3
92% | B4
89% | B5
55% | B6
92% | B7
